Reference: patent publication US20210302413A1 (Johns Hopkins, published 2021)

Molecular target: T1, endogenous human zinc transporter 8 (ZnT8) in EndoC-βH1 cells (human, UniProt Q8IWU4 1-369)
T1 construct: whole, on cells; Intracellular membrane protein, probed in fixed and permeabilised cells (in-cell ELISA), in SDS lysates (immunoblot) or in liposomes (SUVs) made from the cells; On blots two natural splice variants (A and B) are detected; also called endogenous ZnT8; SLC30A8 product
T1 sequence (looked up): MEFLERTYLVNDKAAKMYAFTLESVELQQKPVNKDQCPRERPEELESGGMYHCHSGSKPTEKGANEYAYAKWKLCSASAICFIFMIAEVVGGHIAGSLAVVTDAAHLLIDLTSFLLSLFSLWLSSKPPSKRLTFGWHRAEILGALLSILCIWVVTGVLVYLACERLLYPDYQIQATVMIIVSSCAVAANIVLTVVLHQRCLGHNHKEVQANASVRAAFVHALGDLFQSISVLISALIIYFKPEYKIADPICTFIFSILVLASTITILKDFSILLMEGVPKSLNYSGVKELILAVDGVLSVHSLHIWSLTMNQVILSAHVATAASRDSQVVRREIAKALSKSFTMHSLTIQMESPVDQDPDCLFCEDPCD
Assay: in-cell ELISA, 95×10^3 EndoC-βH1 cells against the same number of rat INS-1E cells
Method: Next, mAb20 or a rabbit anti-HLA-I antibody (Proteintech, Cat. #15240-1-AP) was 1:600 or 1:60 diluted to Permeabilization/Wash Buffer I plus 0.5% BSA. Cells in each well were incubated with the diluted antibody solution for 2 hr at 37° C., washed once, and then exposed to a HRP-conjugated anti-mouse IgG (H+L) (Invitrogen, Cat. #62-6520) or anti-rabbit IgG (H+L) antibody (Invitrogen, Cat. #62-6120) in a 1:3000 dilution in Permeabilization/Wash Buffer I plus 0.1% BSA. After 1 hr incubation with the secondary antibody at RT, cells were washed three times to remove unbound antibodies before adding SuperSignal ELISA Femto Substrate (ThermoFisher Scientific, Cat. #37075). The HRP reaction was terminated at 5 min by transferring the reaction mixture to a 96-well opaque microplate for chemiluminescence quantification on a FlexStation-3 multi-mode microplate reader.
Assay validation. A ZnT8-specific ELISA was developed to track the endogenous ZnT8 level in EndoC-βH1 cells immobilized to a 96-well plate by paraformaldehyde fixation, followed by immunostaining and horseradish peroxidase (HRP) chemiluminescence. The non-specific background was estimated using rat insulinoma INS-1E and human HEK293 cells as negative controls. […] The signal-to-noise ratio at 95×10^3 cells was 3.9 (Z′ score=0.8) over a background detected from a same number of INS-1E cells (FIG. 1A). […]

B1: anti-ZnT8 monoclonal antibody mAb20 (antibody, mouse IgG1, kappa, V domains shown)
VH: QIQLVQSGPELKKPGETVKISCKASGYIFTNYPMHWVKQAPGKGLKWMGWINTYSGVPTHADDFKGRFAFSLETSANSAFLQINNLKNEDTATYFCTRSRITPTGGYAMDYWGQGTSVTVSS
VL: DVVMTQTPLSLPVSLGDQASISCRSSQSLVHSNGNTYLHWYLQKPGQSPNLLISKVSNRFSGVPERFSGSGSGTDFTLKISRVEAEDLGVYFCSQNTHVPWTFGGGTKLEIKR
notes: Mouse monoclonal antibody; Used free (1:600 of a 1 mg/ml stock), biotinylated, or crosslinked to Dynabeads through NHS-PEG5K-NHS; also called mouse mAb20; biotinylated mAb20
B1 showed a signal-to-noise ratio of 3.9.
